According to article PMC2841647 (PLoS ONE, 2010):

How the values were obtained:
phospho(Y816)-TrkB = biological target: T1, phospho(Y816)-TrkB (Mus musculus, UniProt P15209); experiment: Western blot with phospho(Y816)-TrkB antibody after intravenous injection; type: in vivo; settings: mice, i.v. injection, vs tat-empty
T1 construct: KIRA-ELISA analysis of brain TrkB receptors from mice; from tissue; host or cells: adult Swiss mouse brain, 300-µm coronal slices
Procedure: Cell lysates were prepared in boiling SDS (2%, w/v) as described previously and subjected to SDS-PAGE. Detection and analysis of eIF4E, MAPK and Akt phosphorylation were done using anti-total and -phospho-eIF4E antibodies (1∶1000, Cell Signaling), anti-total and -phospho-MAPK antibodies (1∶1000, Cell Signaling) or anti-total and–phospho (Ser473) Akt antibodies (1∶1000, Santa Cruz; 1∶1000, Cell Signaling, respectively), respectively. For TrkB expression analysis, cortical neurons were cultured for eight days and TetOn-rhTrkB cells were incubated overnight with doxycycline. Cells were solubilized as for KIRA-ELISA assays and lysates were centrifuged at 14,000×g for 20 min at 4°C. Cleared supernatant was collected and proteins were subjected to SDS-PAGE. Detection of rhTrkB-ECFP and neuronal mouse TrkB were performed using anti-GFP polyclonal antibody (1∶5000, Clontech) and anti-rodent TrkB polyclonal antibody (1 µg/ml, Upstate), respectively. TrkB phosphorylation was quantified using anti-phospho-TrkB antibody (kindly provided by M.V. Chao). Proteins were visualized using appropriate HRP-conjugated secondary antibodies and films were quantified by densitometry.
Supplementary file pone.0009777.s009.tif: Figure S8 Protocol for in vivo KIRA-ELISA analysis after intravenous injection. […] Bands intensity have been quantified (down) Data are mean ± s.e.m. […]

human TrkB receptor = biological target: T2, human TrkB receptor (Homo sapiens, UniProt Q16620); experiment: KIRA-ELISA (TrkB tyrosine phosphorylation) in TetOn-rhTrkB CHO cells; type: cell-based; settings: TetOn-rhTrkB cells, with or without 4 nM BDNF
T2 construct: expressed in transfected cells
Description: The human recombinant TrkB receptor was fluorescently tagged at its C-terminus with the Enhanced cyan fluorescent protein (rhTrkB-ECFP) by cloning the full human TrkB sequence (kindly provided by G. M. Brodeur) into the pECFP-N1 expression vector (Clontech). For inducible expression, rhTrkB-ECFP was subcloned into the tetracycline-responsive (TetOn) vector pTRE2 (Clontech). Chinese Hamster Ovary cells stably expressing rhTrkB-ECFP (TetOn-rhTrkB cells), were produced by transfection of the pTRE2-rhTrkB-ECFP plasmid into CHO-K1 TetOn cells (Clontech) followed by clone selection in 0.25 mg/ml hygromycin B (Invitrogen) and 0.1 mg/ml geneticin (G418; Invitrogen). Resistant cells were selected based on both fluorescence intensity and KIRA-ELISA profile after an overnight incubation in presence of 1000 ng/ml doxycycline (Clontech). Cortical neurons were prepared and cultured from E16 mouse embryos as described previously. The nnr5 PC12-TrkA, nnr5 PC12-TrkB and nnr5 PC12-TrkC cells (kindly provided by M. V. Chao) are NGF non-responding mutant PC12 cells stably transfected with TrkA, TrkB and TrkC cDNA, respectively.
TrkB activity was quantified using the previously described KIRA-ELISA assay with slight modifications. Cortical neurons were seeded on polyornithin-coated flat-bottom 96-well culture plates (12×10^4 cells per well) and cultured eight days at 37°C in 5% CO2. TetOn-rhTrkB cells were seeded on flat-bottom 96-well culture plates (4×10^4 cells per well) and incubated overnight with 1000 ng/ml doxycycline (Figs. S1,S2) except when indicated. Fluorescence levels in TetOn-rhTrkB cells were verified before each assay. […] Assay was stopped by removing the medium on ice and membranes were solubilized using KIRA-ELISA solubilization buffer (NaCl 150 mM, Hepes 50 mM, Triton X-100 0.5%, thimerosal 0.01%, sodium orthovanadate 2 mM, supplemented with a cocktail of protease inhibitors) for 1 h at room temperature. Solubilized membranes were transferred for 2 h at room temperature onto ELISA microtiter plate (Nunc Maxisorp) pre-coated overnight at 4°C with appropriate antibodies [polyclonal anti-GFP (1∶5000, Clontech) for TetOn-rhTrkB, polyclonal anti-TrkB (1 µg/ml, Upstate) for cultured neurons and brain slices, for phosphorylation assays; monoclonal anti-GFP (1∶3000, Chemicon) for TetOn-rhTrkB, monoclonal anti-TrkB (1∶1000, BD Biosciences) for cultured neurons and brain slices, for total TrkB quantification]. […] Absorbance was read at 450 nm after addition of 3,3′,5′,5-tetramethyl-benzidine substrate (Sigma) and acidification with 1N hydrochloric acid.
Concentration-response and competition curves were obtained using an iterative least-squares method derived from that of Parker & Waud (1971). […] Concentration-response curves and Eadie-Hofstee plots were analyzed using two-way ANOVA. Significance over time in locomotor activity studies was given using two-way ANOVA followed by Bonferroni's post-hoc test. […] One-way ANOVA followed by post-hoc Dunnett's test was used to evaluate statistical significance compare to saline group in EPM and FST procedures. n represents the number of independent experiments.

mice = experiment: Open field; type: in vivo, mouse
Procedure: Mice were treated as described above before being subjected to behavioral studies. Predictive estimation for anxiolytic properties of tat-cyclotraxin-B was assessed using open field and elevated plus-maze (EPM). Antidepressant-like action of tat-cyclotraxin-B was assessed with the forced-swim test (FST). Effects of acute treatment with tat-cyclotraxin-B on spontaneous locomotion, exploration and reactivity to a novel open field was assessed in plexiglas activity chambers (Med Associates; 45×45×31 cm). Mice were placed into the center of the open field, and activity was recorded for 30 min. Testing took place under bright ambient light conditions to increase the anxiety component of the center areas of the field (defined as the central 15×15 cm portion). Mice subjected to EPM received a double 90-interval i.v. injection of tat-cyclotraxin-B or saline buffer before being placed on the platform of the EPM and assessed for 5 min (26×5×36 cm). The diazepam control group consisted of saline buffer double-treated mice that further received a 30-min i.p. injection of diazepam (1 mg/kg). Mice were assessed for number of entries and amount of time spent in open versus closed arms. […] The total time of swimming, the number of climbing attempts and the time of immobility was recorded during the last 4 min of the session, after 2 min of habituation. […] Behaviors were recorded on videotape and scored blind.

T1 sequence (P15209 32-821): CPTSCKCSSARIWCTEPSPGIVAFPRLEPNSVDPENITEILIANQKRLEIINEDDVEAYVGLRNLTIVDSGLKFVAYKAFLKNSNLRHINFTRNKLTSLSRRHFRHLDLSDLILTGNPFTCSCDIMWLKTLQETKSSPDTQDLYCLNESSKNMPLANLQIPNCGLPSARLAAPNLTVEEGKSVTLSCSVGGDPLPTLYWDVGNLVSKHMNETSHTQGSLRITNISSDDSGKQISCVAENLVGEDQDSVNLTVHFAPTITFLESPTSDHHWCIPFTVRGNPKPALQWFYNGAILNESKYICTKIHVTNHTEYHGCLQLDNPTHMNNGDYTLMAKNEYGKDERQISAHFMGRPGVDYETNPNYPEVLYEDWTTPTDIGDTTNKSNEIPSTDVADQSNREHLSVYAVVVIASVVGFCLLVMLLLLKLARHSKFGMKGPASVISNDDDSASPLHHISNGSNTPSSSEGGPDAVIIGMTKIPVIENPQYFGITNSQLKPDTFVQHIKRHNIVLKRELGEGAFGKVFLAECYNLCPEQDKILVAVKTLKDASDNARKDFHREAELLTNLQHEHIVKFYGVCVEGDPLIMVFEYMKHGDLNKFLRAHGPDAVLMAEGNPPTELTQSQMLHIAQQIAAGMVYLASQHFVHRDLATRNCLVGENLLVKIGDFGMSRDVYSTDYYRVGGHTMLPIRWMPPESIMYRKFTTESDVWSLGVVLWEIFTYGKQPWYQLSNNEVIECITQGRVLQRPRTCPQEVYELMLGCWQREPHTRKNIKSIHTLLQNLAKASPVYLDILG
T2 sequence (Q16620 32-822): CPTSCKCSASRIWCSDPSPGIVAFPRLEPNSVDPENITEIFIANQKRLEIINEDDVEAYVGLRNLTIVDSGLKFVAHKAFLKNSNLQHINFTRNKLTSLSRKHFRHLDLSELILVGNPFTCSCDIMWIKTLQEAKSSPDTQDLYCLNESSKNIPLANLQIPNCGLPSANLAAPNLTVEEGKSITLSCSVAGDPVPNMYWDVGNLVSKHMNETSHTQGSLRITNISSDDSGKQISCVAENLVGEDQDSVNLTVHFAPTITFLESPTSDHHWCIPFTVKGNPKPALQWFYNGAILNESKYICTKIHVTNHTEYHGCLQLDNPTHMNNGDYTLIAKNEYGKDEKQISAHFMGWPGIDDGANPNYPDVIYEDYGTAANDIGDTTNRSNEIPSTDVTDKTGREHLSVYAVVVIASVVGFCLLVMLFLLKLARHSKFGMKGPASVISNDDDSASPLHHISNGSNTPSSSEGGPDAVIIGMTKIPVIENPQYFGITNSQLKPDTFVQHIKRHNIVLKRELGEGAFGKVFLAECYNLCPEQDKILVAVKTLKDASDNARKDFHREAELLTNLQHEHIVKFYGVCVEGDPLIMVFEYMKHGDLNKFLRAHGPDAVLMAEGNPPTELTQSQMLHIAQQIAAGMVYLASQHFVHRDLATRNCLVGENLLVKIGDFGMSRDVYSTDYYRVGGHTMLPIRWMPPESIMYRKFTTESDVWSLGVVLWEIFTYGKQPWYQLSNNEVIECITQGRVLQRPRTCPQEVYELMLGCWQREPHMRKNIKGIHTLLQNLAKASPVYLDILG

YGRKKRRQRRRCNPMGYTKEGC [tat-cyclotraxin-B]
reduction in phospho(Y816)-TrkB band intensity (phospho(Y816)-TrkB): 37.7±4.7%
TrkB inhibition compared with cyclotraxin-B (human TrkB receptor): similarly to cyclotraxin-B
locomotor activity in open field (mice; 30 min): did not show any alterations
time in the center compartment of open field (mice; compared to saline controls): significantly more time
